How the values were obtained:
MBP-HSFA1d [1] = molecular target: T1, MBP-HSFA1d (Arabidopsis thaliana, UniProt Q9LQM7 1-485); assay: EMSA
MBP-HSFA1d [2] = molecular target: T1, MBP-HSFA1d; assay: competition

T1 sequence (Q9LQM7 whole entry): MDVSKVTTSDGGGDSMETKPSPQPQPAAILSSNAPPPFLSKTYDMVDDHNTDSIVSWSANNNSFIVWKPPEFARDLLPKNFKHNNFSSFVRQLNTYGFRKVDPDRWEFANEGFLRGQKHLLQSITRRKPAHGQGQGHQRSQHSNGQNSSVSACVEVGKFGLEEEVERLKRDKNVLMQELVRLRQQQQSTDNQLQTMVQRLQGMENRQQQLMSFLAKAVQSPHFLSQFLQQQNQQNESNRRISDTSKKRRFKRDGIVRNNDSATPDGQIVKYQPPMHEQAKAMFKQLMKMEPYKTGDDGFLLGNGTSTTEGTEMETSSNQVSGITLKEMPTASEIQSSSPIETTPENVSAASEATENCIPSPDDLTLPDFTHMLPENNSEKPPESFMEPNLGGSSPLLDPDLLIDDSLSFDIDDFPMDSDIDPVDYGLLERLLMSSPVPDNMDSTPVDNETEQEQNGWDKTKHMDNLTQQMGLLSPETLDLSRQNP

Binder	binding result (MBP-HSFA1d [1])	binding result (MBP-HSFA1d [2])
WIND1_m probe (dsDNA) DNA 1: AATCCCTCCCTAAACCTCTATGGGACCTTATTAATTTTTG DNA 2: CAAAAATTAATAAGGTCCCATAGAGGTTTAGGGAGGGATT	no binding	
ZAT6 promoter probe (dsDNA) DNA 1: AATTCTTATCACTTAAGAATATTCTAGAGAGCTCTCACTT DNA 2: AAGTGAGAGCTCTCTAGAATATTCTTAAGTGATAAGAATT	binds	
WIND1 promoter probe (dsDNA) DNA 1: AATCCCTCCCTAAACCTCTAGAGAGTTCTATTAATTTTTG DNA 2: CAAAAATTAATAGAACTCTCTAGAGGTTTAGGGAGGGATT	binds	
WIND1 unlabelled competitor (dsDNA) DNA 1: AATCCCTCCCTAAACCTCTAGAGAGTTCTATTAATTTTTG DNA 2: CAAAAATTAATAGAACTCTCTAGAGGTTTAGGGAGGGATT		binds

Source: paper doi:10.1101/2025.09.29.679115
